Biological target: T1, hIL-4Rα (Sino Biological) (human, UniProt P24394 26-232)
T1 construct: Bought protein immobilised on the CM5 chip for SPR
Assay: SPR (Biacore 2000), hIL-4Rα (Sino Biological) immobilised to about 500 RU on CM5, IgG as analyte
Experimental: Specifically, hIL-4Rα (Sino Biological) was diluted to a concentration of […] in a 10 mM NaAc buffer (pH 4.0) and immobilized to about 500 response units (RU) on a CM5 sensor chip (GE Healthcare). […] After binding and dissociation analysis, regeneration of the CM5 chip was carried out by flushing the CM5 chip with a buffer solution (10 mM Glycine, pH 2.0) at a flow rate of 30 μl/min for 90 seconds. The sensorgram, obtained by binding for 90 seconds and dissociation for 900 seconds, was normalized and the value of a blank cell was subtracted therefrom to calculate the affinity.
In this manner, affinity may vary depending on the level of antigen immobilization.

- Kd: 1.21 nM
- koff: 0.000177 s⁻¹
- kon: 147000 M⁻¹ s⁻¹
B1: 4R25 (antibody, V domains shown)
VH: EVQLLESGGGLVQPGGSLRLSCAASGFTFSNYAMSWVRQAPGKGLEWVSWISPNSGNIYYADSVKGRFTISRDNSKNTLYLQMNSLRAEDTAVYYCARRPLSAAWSHSSYYNAMDVWGQGTLVTVSS
VL: QSVLTQPPSAPGTPGQRVTISCTGSSSNIGSNSVNWYQQLPGTAPKLLIYDDSHRPSGVPDRFSGSKSGTSASLAISGLRSEDEADYYCDAWDSSLSAYVFGGGTKLTVL

Reference: US20210403580A1 (AJOU UNIVERSITY INDUSTRY ACADEMIC COOPERATION FOUNDATION, published 2021)
